Data as given in paper PMC7025878.

Biological target: GluD1△851 (rat GluD1 receptor truncated C-terminally at residue 851) (rat)
Test: cryo-EM structure

## GluD1△851 (rat GluD1 receptor truncated C-terminally at residue 851)
  stoichiometry N: 4
